Reference: paper PMC11170971 (2024)

What was measured:
[1] = molecular target: hTLR2 extracellular domain, purified recombinant (human, UniProt O60603 21-588); assay: MST
[2] = molecular target: T1, zTLR4ba extracellular domain, purified recombinant (zebrafish); assay: MST
T1 chain: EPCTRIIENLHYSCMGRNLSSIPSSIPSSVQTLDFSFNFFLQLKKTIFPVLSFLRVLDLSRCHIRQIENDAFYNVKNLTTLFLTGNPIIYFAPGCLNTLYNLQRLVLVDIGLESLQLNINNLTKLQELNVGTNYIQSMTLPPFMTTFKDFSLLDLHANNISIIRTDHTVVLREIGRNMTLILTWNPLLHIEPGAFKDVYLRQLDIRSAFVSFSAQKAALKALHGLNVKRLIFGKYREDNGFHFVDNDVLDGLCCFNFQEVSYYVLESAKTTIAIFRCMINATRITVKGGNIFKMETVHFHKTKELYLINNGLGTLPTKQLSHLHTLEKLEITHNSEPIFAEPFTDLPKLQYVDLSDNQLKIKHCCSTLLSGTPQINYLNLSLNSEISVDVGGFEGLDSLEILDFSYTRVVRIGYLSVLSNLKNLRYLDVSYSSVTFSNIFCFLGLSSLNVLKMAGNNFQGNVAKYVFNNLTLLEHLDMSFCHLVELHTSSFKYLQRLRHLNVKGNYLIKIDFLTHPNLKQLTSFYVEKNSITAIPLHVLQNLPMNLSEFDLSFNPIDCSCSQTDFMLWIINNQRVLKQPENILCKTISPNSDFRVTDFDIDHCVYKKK

Sequence of hTLR2 extracellular domain, purified recombinant (O60603 21-588): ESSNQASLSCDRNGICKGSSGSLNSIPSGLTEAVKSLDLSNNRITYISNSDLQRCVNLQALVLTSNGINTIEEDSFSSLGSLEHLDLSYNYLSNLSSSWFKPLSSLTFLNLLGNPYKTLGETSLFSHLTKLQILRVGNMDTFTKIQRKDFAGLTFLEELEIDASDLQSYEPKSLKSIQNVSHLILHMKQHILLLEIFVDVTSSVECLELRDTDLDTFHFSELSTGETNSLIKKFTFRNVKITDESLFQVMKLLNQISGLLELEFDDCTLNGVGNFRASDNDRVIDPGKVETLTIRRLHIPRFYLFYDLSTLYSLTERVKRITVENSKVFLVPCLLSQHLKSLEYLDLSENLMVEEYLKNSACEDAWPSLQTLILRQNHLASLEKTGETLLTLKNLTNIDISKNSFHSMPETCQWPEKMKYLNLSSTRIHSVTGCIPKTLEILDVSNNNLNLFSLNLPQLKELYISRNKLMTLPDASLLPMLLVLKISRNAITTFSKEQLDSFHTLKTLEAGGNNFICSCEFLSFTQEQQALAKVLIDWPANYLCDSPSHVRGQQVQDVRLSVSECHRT

- Kd [1]: 0.19 µM
- Kd [2]: 2.98 µM
B1: recombinant His-tagged SpaC protein (SpaC pilin subunit of Lactobacillus rhamnosus GG) (natural protein)
chain: MTAKVARTGHLFAVLLILMSMLTGLVTSGSSVVTATDNIRPTYQTDANGTYPTNSWQVTGQQNVINQRGGDQVSGWDNNTIWNGDATDTTNSYLKFGDPNNPDYQIRKYAKETNTPGLYDVYLNVKGNKQQNVKPVDIVLVVDMSGSMESNRWGTNRAGAVRTGVKNFLTSIQNAGLGNYVNVGLIGFSSPGYIGGKSGYISVKLGKAGNASQQQAINGALSPRFQGGTYTQIGLRQGSAMLNADTSGNKKMMILLTDGVPTFSNEVINSEWINGTLYGTNFGSSRDEPGNTARLRWPYTDSSGHYIYDTWPATLGEAKIAKDSGNEVHALGIQLADDDHYMTKEKIRQNMQLITNSPDLYEDADSADAVEAYLNNQAKDIIKNFNTVTDGTITDPIGTQFQYANNQATVTSVGKQTVPASELPSAAIQDGQLTVNHMNLGQDQEVQIHYQVRIKTEDAGFKPDFWYQMNGETLLTPKAGAAAVDFGIPSGRAPATTVYVQKQWRQLSNQSLPDTLNVTVQRKVADGSLDPNWQQTLVLKKADNWKASFTAPAYNNQGQSFSYVVKSEDASGIDLSSFISSQNMDQQTATLTLTNQQYGFQFQKKTTDGTDLSADQLKAMQFNLTQYSDNSFQQASKTNAITSTDLQALAPGYYGIQEAAAPTGYQLDGTTYLFQLTSDGQWQYHGTKDNVTSGSVINGQQTLNPVGDKSDDFTVTGDHQQILTLTKYDEPKPSMTLRVIKQDNQSQYLAGAAFTLQPSAGEAETITSSATSEGQAFATKLVADGTYTMSETKAPDGYQSNPAKIAIQVATTGKEATVTIDGEALKPGESKNGYTLAIDGSTITLQAINQPLAILPHTGGQGYQRLLGIALGLISAAFLLLLVVLIKRRVVKQHD
modifications: labelled with Monolith Protein Labeling Kit Red-NHS (in the MST only)
